Test results taken from a protein production outcome set (Wang et al. 2014).

Assay: label from the status in PepcDB records

In the case of “MSKSTAEIRQAFLDFFHSKGHQVVASSSLVPNNDPTLLFTNAGMNQFKDVFLGLDKRNYSRATTSQRCVRAGGKHNDLENVGYTARHHTFFEMLGNFSFGDYFKHDAIQFAWELLTGENWFALPKERLWVTVYETDDEAYEIWEKEVGIPRERIIRIGDNKGAPYASDNFWQMGDTGPCGPCTEIFYDHGDHIWGGPPGSPEEDGDRYIEIWNIVFMQFNRQADGTMEPLPKPSVDTGMGLERIAAVLQHVNSNYDIDLFRTLIEAVAKVTGATDLGNKSLRVIADHIRSCAFLVADGVLPSNENRGYVLRRIIRRAVRHGNMLGAKETFFYKLVGPLIEVMGSAGEELKRQQAQVEQVLKTEEEQFARTLERGLALLDEELAKLQGDTLDGETAFRLYDTYGFPVDLTADVCRERNIKVDEAGFEAAMEEQRRRAREASGFGADYNAMIRVDSASEFKGYDHLELNGKVTALFVDGKAVEAINAGQEAVVVLDQTPFYAESGGQVGDKGELKGAGFTFAVDDTQKYGQAIGHLGKLSAGALKVGDAVQADVDEARRARIRLNHSATHLMHAALRQVLGTHVAQKGSLVSDKVLRFDFSHNEAMKPSEIREVEDLVNAQIRRNLPIETNIMDLDAAKAKGAMALFGEKYDERVRVLSMGDFSTELCGGTHASRTGDIGLFRIISESGTAAGIRRIEAVTGEGAMATVHAQSDRLNDIAHLLKGDSQNLGDKVRAVLERTRQLEKELQQLKDQAAAQESANLSSKAVDLNGVKLLVSELAGIEPKMLRTMVDDLKNQLGSTVIVLATVVEGKVSLIAGVSKDVTDRVKAGELIGMVAQQVGGKGGGRPDMAQAGGTDAAALPAALASVQGWVSAKLQ”, the protein production was “failed”.

In the case of “MRQFQRLANDGLKSCPPKSGCPMHILFIGYGKTSQRIAKHLFAQGHQITAVSRHPKPQDFVTHLTQDIHQLNLDQCSPIDWVYVLLAPENSDAQSYKHTYLDSVQPIARALATHPVKRVVVVSSTRVYGQQQAGEIVNDQTIAKPVDQQGAYLLEMEEAWQNAFAEHCTIIRPSGIYGNSISRMVKLAKNTTEYPVIHYSNRIHIEDLARFLAFMTQMPCCQPSYLISDGHPYPLHEIILWFQKQLALPQLVLQSDSVTGKRIVPVNFLTTGFELQAEDCFEIYGNLLRSVDT”, the protein production was “failed”.

For “MATDTTVQLRAGWQGRFYEDFAVGDVYKHPYGRTVTETDNVWFTNLTMNANPMHFNAAYASGTEFDERLVNGLFVIALSVGMSVVDVSANATANLGYDDIQHHAPVFHGDTLFAESEVLSKRESESRPHVGMVTTELRTYTQDGELVLSLERTPMVRKRGLEHHHHHH”, the protein production was “not failed”.

For “MDTMDTLRAFLRVAELGSFTRAAETLGLPKASVSTAVQRLEASLGTQLLHRTTRRVQLTADGTAFYQRSRDLLDDMDELQGMFQRDHSQLRGRLRVDMSAGIARQFVIPALPAFLAQHPQLEIEISGTDRRVDLVREGFDCVLRVGTVEDTSLVGRPLGVLRIINVASAQYLAQRGVPQTLEDLAQHDLVHYVSTLGQRSPGFEYHDGAQYHWLPMRGPVTVNNGDAYLAAARAGLGIIQAPASPLQAHLDSGVLVEVLAQMAPEPMPVTLLYAQRRHLPQRVRLFMDWIAQVMAPHLEPHLP”, the protein production was “failed”.

For “MADWLIGIIMGAVEGLTEFLPVSSTGHMILTGHLLGFDDERAKVFEVVIQLGSILAVVVIFWKRLWSLVGIGKVTDGPSLNLLHIIIGMIPAGVLGVLFHSAIKEVLFGPGPVVISLVAGGILMIVAEKFSKPSTARTLDEITYKQAFTIGMFQCLALWPGFSRSGSTISGGLLARVSHTAAAEYTFILAVPMMVAASGLDLIKSWDILSAADIPLFATGFITAFVVAMLAIVSFLKLLSRVKLTPFAYYRFILAAVFYFFIM”, the protein production was “failed”.

For “MSLVKKSSNVIAAVVSSVRTNFAQQILDGIQEEAHKNGYNLIIVYSGSADPEEQKHALLTAIERPVMGILLLSIALTDDNLQLLQSSDVPYCFLSMGFDDDRPFISSDDEDIGYQATNLLINEGHRQIGIAGIDQYPYTGRKRLAGYKKALKEANIAINQEWIKPGDYSYTSGEQAMKAFGKNTDLTGIIAASDMTAIGILNQASSFGIEVPKDLSIVSIDGTEMCKITRPQLTSISQDFFQMGVTGVQQIHQSVKNGSNRIVSQQFIPVNPVIRKSTARLGEGHHHHHH”, the protein production was “not failed”.

In the case of “MYCWNPELYAFSSSAQKSWGIELLTKFPLKGNERVLDVGCGDGKLSAEIAKRLPEGSVLGIDLSEAMVCFAKNHYPKEQFPNLSFMLMDAGNVPFESEFDVIFSNAALHWIKEPKAIETVLKGFLKSLRPEGKLLAQFGGRGNAAEVLLVLNSMLEDEKWSPYFGNFVFPYGFYGPEEYGKWLKNAGFSVRRAELYSKDMTLKGKEGLSGWFASTWHPFTQRVPENLKEEFIDELAVNFIKLHPLDNEGYVHIRMVRLEIEADIEK”, the protein production was “failed”.

In the case of “MSLANWYLDNESSRLSFTSTKNADIAEVHRFLVLHGKVDPKGLAEVEVETESISTGIPLRDERLREQVFQVHKFPVAQINAQLDMRPINNLAPGAQLELRLPLTVSLRGKSHSYNAELLATRLDERRFQVVTLEPLVIHAQDFDMVSDFNALRNAAGLSAVSLSVPVGAVLIFTAREGHHHHHH”, the protein production was “not failed”.

In the case of “MNHTLQFPKAPEHLLQALNEVIPKCKLMAQQLPETAISLWLIPPVFPTERLDDDIIRRIWSDTPYWIFCWASGLAMAQWLLAEPHHVKDKVVLDFGAGSGVVAIAAKMAGAKRVICCDIDETSLNACRENALLNNVELEYLNDLYLSESVDILLAADVLYDQSNRFFLDEFLKFAPEVWVADSRVKNFSHPGYIKIDERSATTWPDLDEAKEFRNVSFYKTLEHHHHHH”, the protein production was “failed”.

For “MIKPELPSNEAERLAALRQYDVLDSPAERAFDDLTMIASTLCETQMAAVVLVDEDRQWFKSAHGAPRSEAPRDISFCAHAILRPDEVLMVDDTLLDPRFHDNPMVVGSGGVRFYAGAPLVTSQGMALGSLCVFDQAPAHLREDQREALQALSRQASQLLELRLAGRQLRQQLHEREWYEQQMAGYYAQMDALHADLVEQTRTDPLTGLPNRRAFAVALAAATEQTRAVGQPLSVALLDVDHFKTVNDVHGHDQGDAVLRELSTLLRAHMAGAGTIARYGGEEFVLLLPNANLLQARVQCEYLRQSVAAMTIALPVTVSIGVATLYPQESVEAVIKRADQALYAAKRGGRDQVVALE”, the protein production was “failed”.

For “MGLLGIVIALGAMIWLAFRGWSILIIAPAAALLAAATAGEPLLAHWTQTFMGTAAGFVAQFFPLFLLGALFGKLMDDSGSVTAIAEWMTRVLGPQRAMLAVVLAGALLTYGGVSLFVAFFVLAPMAHALFRAADIPPRLMPAAIVLGTSTFTMSALPGTPAIQNAIPMPFFSTTPFAAPGLGIVASAIMLTFGLWWLSQRENAARRRGEGYAIAEEEASPDEVAERPLIRELASTAREFDPAEALQGSRSDEPPAAFIALLPLAVVIVVNLLMSFVVLPRVDADYLGLPEWGATTLQAVSGVWSVIVALTAAILCLIALNFRRLPELRDSMGAGAHAAALPVLSVASLVGFGAVVASLPGFGVVRDWVLSIEGGPLVSLAVATNVLSALTGSASGGLTIALDALGGTYLTRAFDLGIDPAILHRVAVMSAGTLDTLPHNGAVVTLLAVCGATHRESYGGIVMVGIVGPMLALAAVIALGSWVGSF”, the protein production was “failed”.

For “INSAIELMEHNSSLSISEIAQFTNTSTAYFSRIFKKTIGETPVCFYTKIKLKKVQKLLITTNLTLAEISEQTGFTDPFYLSKVFTTHLGCSPRTYRKN”, the protein production was “failed”.

In the case of “MVFMANKKKTKGKKTRRPTKAEIERQRAIQRMITALVLTIILFFGIIRLGIFGITVYNVIRFMVGSLAYLFIAATLIYLYFFKWLRKKDSLVAGFLIASLGLLIEWHAYLFSMPILKDKEILRSTARLIVSDLMQFKITVFAGGGMLGALIYKPIAFLFSNIGAYMIGVLFIILGLFLMSSLEVYDIVEFIRAFKNKVAEKHEQNKKERFAKREMKKAIAEQERIERQKAEEEAYLASVNVDPETGEILEDQAEDNLDDALPPEVSETSTPVFEPEILAYETSPQNDPLPVEPTIYLEDYDSPIPNMRENDEEMVYDLDDDVDDSDIENVDFTPKTTLVYKLPTIDLFAPDKPKNQSKEKDLVRKNIRVLEETFRSFGIDVKVERAEIGPSVTKYEIKPAVGVRVNRISNLSDDLALALAAKDVRIETPIPGKSLIGIEVPNSEIATVSFRELWEQSDANPENLLEVPLGKAVNGNARSFNLARMPHLLVAGSTGSGKSVAVNGIISSILMKARPDQVKFMMIDPKMVELSVYNDIPHLLIPVVTNPRKASKALQKVVDEMENRYELFSKIGVRNIAGYNTKVEEFNASSEQKQIPLPLIVVIVDELADLMMVASKEVEDAIIRLGQKARAAGIHMILATQRPSVDVISGLIKANVPSRIAFAVSSGTDSRTILDENGAEKLLGRGDMLFKPIDENHPVRLQGSFISDDDVERIVGFIKDQAEADYDDAFDPGEVSETDNGSGGGGGVPESDPLFEEAKGLVLETQKASASMIQRRLSVGFNRATRLMEELEAAGVIGPAEGTKPRKVLMTPTPSE”, the protein production was “failed”.

In the case of “MFHFSLSPRRTGRGARPRARLGAMLALAFLAGGLTAGPGNAAEGAGATAERQYCACMALARSRPDQAFEKAGQWKALGGGVPARHCEAVALLGLKEYGEAARRLEALAEDVKLARGLRVDLLTQAGQAWLAVGDLSRAYANQTTALQLAGARAQSGAPALSSVLPDLYIDRAVTLAQAGRDDEATTDLTKALALQPASVTALVLRASAQRRQGRLTAARADAEAAVKRAPNDAEARLERGDVRLALGDRDGARADWLKVLELAPREGAADAARARIETLDLKVR”, the protein production was “failed”.

For “MDLMAYWLCITNEDNWKVIKEKKIWGVAERYKNTINKVKVGDKLIIYEIQRSGKDYKPPYIRGVYEVVSEVYKDSSKIFKPTPRNPNEKFPYRVKLKEIKVFEPPINFKELIPKLKFITNKKRWSGHLMGKAMREIPEEDYKLIVGN”, the protein production was “not failed”.

For “MLDLAAPFFLLLLPLPFLVRRFLPPHAAQEGALYLPEAFAAAARPTSAFARSERWEGALRAILWLALVLALAGPERLKAVPDLSASGREIVLTLDMSGSMLIEDFDIDGVQSTRLEAVKRVARSFVEERQGDRIGLVLFANRAYVAAPLTFDLAAVGRAIEEASIGITGRSTAIADGLGLALKSVTESSAASRVIVLLSDGQDNAHQIDARQVAGLAARHGVRIHTIALGPDDLETRPAARDAVDTATLRAIAEASGGRSYRVRGMEDLRAMAADLDRLEPNPAERPPVLVPEPLWPWPALLALGAALVLGLRRAGLAPWPRRAGRAA”, the protein production was “failed”.

In the case of “MTRDLAPALQALSPLLGSWAGRGAGKYPTIRPFEYLEEVVFAHVGKPFLTYTQQTRAVADGKPLHSETGYLRVCRPGCVELVLAHPSGITEIEVGTYSVTGDVIELELSTRADGSIGLAPTAKEVTALDRSYRIDGDELSYSLQMRAVGQPLQDHLAAVLHRQR”, the protein production was “not failed”.

In the case of “MQRFVLRDWHYRGLSMSLMAQTDKPNIVIIMTDQQRADLCGREGFPLAVTPYVDQLAQENVWFNKAYTVAPASSPARCSMFTGRFPSATHVRTNHNIPDIFFEQDLVGVLKENGYKTALVGKNHAYLKPADLDFWSEYGHWGKNKKTTPEEKETARFLNQKARGQWLEPSPIPVEEQHPAKIVNETLSWIESQKENPFFVWVSFPEPHNPYQVCEPYYSMFSPDKLPVLKTSRKDLEKKGEKYRILAELEDASCPNLEQDLPRIRANYIGMIRLIDDQIKRLIESLKASGQFENTIFVVLSDHGDYWGEYGLIRKGAGLSESLARIPMVWAGYHVKNQSAPMDSHVSIADIFPTLCSAIGAKIPAGVQGRSLWPMLTGKEYPKEEFSSIVVQQGFGGAHVGLDSSLTFEQEGALTPGKIAYFDELNTWTQSGTSRMVRKDDWKLVMDNYGNGELYNLKKDPSEVDNLFGKKKYTAVQTELLTKLVAWELRLQDPLPLPRKRYHFKQDPYNYLQPEQLEHHHHHH”, the protein production was “failed”.

With “MLNFTVGPVMSSEEVRAIGAEQVPYFRTTEFSSTMLENEKFMLEYAKAPEGSKAVFMTCSSTGSMEAVVMNCFTKKDKVLVIDGGSFGHRFVQLCEIHEIPYVALKLEHGKKLTKEKLYEYDNQNFTGLLVNVDETSTAVLYDTMMIGEFCKKNNMFFVCDCVSAFLADPFNMNECGADVMITGSQKVLACPPGISVIVLAPRGVERVEKSKVRTMYFDLKDALKNQERGQTPFTPAVGILLQINERLKEIKKHGGADAEVARIASQAADFRAKIKDLPFELVSESPANGVTSVHPTTANAYDIFLKLKDEYGIWICPNGGEMKDTIFRVGHIGALTHEDNTTLVNAFKDLQKRNLL” the protein production was “not failed”.
